In patent publication US8008547B2, “Glyphosate-N-acetyltransferase (GAT) genes” (E.I. duPont de Nemours, priority 2000, dated 2011):
Numbering of substitutions follows the chain as printed.

B1: SEQ ID NO: 446: GAT polypeptide (protein)
chain: MIEVKPINAEETYELRHRILRPNQPIEACMYETDLLRGAFHLGGFYRGKLISIASFHQAEHSELEGQKQYQLRGMATLEGYRDQKAGSSLIRHAEQLLRKKGANMLWCNARTTASGYYKKLGFSEQGEIFDTPPVGPHILMYKRIT
modifications: 0_5D7
notes: GAT polypeptide
B2: SEQ ID NO: 467: GAT polypeptide (protein)
chain: MIEVKPINAEDTYELRHRILRPNQPLEACMYESDLLRGSFHLGGFYRGKLISIASFHQAEHSELEGQKQYQLRGMATLEGFREQKAGSSLIRHAEEILRKRGADLLWCNARTTAAGYYKKLGFSEQGEIFDTPPVGPHILMYKRIT
modifications: 1_1H2
notes: GAT polypeptide
B3: SEQ ID NO: 469: GAT polypeptide (protein)
chain: B2 chain with L26I, H61Q, F81Y, E83D, S89T, R92K, R101K, T113S, K120R, I145L
modifications: 1_2A12
notes: GAT polypeptide
B4: SEQ ID NO: 275: GAT polypeptide (protein)
chain: MIEVKPINAEDTYEIRHRILRPNQPLEACMYETDLLGGTLHLGGYYRGKLISIASFHQAEHPELEGQKQYQLRGMATLEEYREQKAGSTLIRHAEELLRKKGADLLWCNARTSASGYYKKLGFSEQGGVYDIPPVGPHILMYKKLT
modifications: 10_20D10
notes: GAT polypeptide
B5: SEQ ID NO: 277: GAT polypeptide (protein)
chain: B4 chain with M30K, L40F, G128E, I132T
modifications: 10_2B8
notes: GAT polypeptide
B6: SEQ ID NO: 276: GAT polypeptide (protein)
chain: B4 chain with L40F, I51V, E80G, G128E, I132T
modifications: 10_23F2
notes: GAT polypeptide
B7: SEQ ID NO: 466: GAT polypeptide (protein)
chain: MIEVKPINAEETYELRHKILRPNQPIEACMYESDLLRGSFHLGGFYRGQLISIASFHKAEHSELQGQKQYQLRGMATLEGFREQKAGSSLIRHAEEILRNKGADLLWCNARTTASGYYKRLGFSEHGEVFETPPVGPHILMYKRIT
modifications: 1_1H1
notes: GAT polypeptide
B8: SEQ ID NO: 444: GAT polypeptide (protein)
chain: MIEVKPINAEDTYELRHRILRPNQPIEACMYESDLLRGAFHLGGFYRGKLISIASFHQAEHSDLQGQKQYQLRGMATLEGYREQKAGSTLIRHAEQLLRKRGADLLWCNARTSASGYYKRLGFSEQGEVFDTPPVGPHILMYKRLT
modifications: 0_5D11
notes: GAT polypeptide
B9: SEQ ID NO: 464: GAT polypeptide (protein)
chain: B8 chain with A28V, S33T, T89S, R92K, L97I, R120K
modifications: 11_3D6
notes: GAT polypeptide
B10: SEQ ID NO: 468: GAT polypeptide (protein)
chain: B2 chain with L15I, E63D, F81Y, E83D, E96Q, K120R, I129V, R144K, I145L
modifications: 1_1H5
notes: GAT polypeptide
B11: SEQ ID NO: 450: GAT polypeptide (protein)
chain: B8 chain with F45Y, D63E, Y81F, L97I, L105M, R120K, V129I, L145I
modifications: 0_6F2
notes: GAT polypeptide
B12: SEQ ID NO: 462: GAT polypeptide (protein)
chain: B8 chain with R18K, F40L, F45Y, D63E, T89S, R92K, Q96E, L97I, R120K, L145I
modifications: 11_3C3
notes: GAT polypeptide
B13: SEQ ID NO: 447: GAT polypeptide (protein)
chain: B8 chain with I2L, F40L, Y81F, E83D, T89S, L97I, R120K, E128K, L145I
modifications: 0_6B4
notes: GAT polypeptide
B14: SEQ ID NO: 454: GAT polypeptide (protein)
chain: B8 chain with I2L, Y31F, D63E, T89S, Q96E, L97I, L105M, R120K, V129I, D131E
modifications: 10_4F2
notes: GAT polypeptide
B15: SEQ ID NO: 459: GAT polypeptide (protein)
chain: B8 chain with I2L, Y31F, S33T, Y81F, Q96E, L97I, V129I
modifications: 11_3B1
notes: GAT polypeptide
B16: SEQ ID NO: 455: GAT polypeptide (protein)
chain: B8 chain with A28V, S33T, D63E, Y81F, T89S, L97I, R120K, V129I
modifications: 10_4F9
notes: GAT polypeptide
B17: SEQ ID NO: 449: GAT polypeptide (protein)
chain: B8 chain with F45Y, Y81F, E83D, T89S, L97I, R120K, D131E, L145I
modifications: 0_6D11
notes: GAT polypeptide
B18: SEQ ID NO: 460: GAT polypeptide (protein)
chain: B8 chain with Y31F, F45Y, D63E, E83D, T89S, L97I, L105M, R120K, L145I
modifications: 11_3B5
notes: GAT polypeptide
B19: SEQ ID NO: 463: GAT polypeptide (protein)
chain: B8 chain with I2L, R18K, Y31F, R47G, Q65E, Q96E, L97I, R120K, V129I, L145I
modifications: 11_3C6
notes: GAT polypeptide
B20: SEQ ID NO: 458: GAT polypeptide (protein)
chain: B8 chain with R18K, A28V, S62P, E83D, T89S, R92K, L97I, R120K, D131E
modifications: 11_3A11
notes: GAT polypeptide
B21: SEQ ID NO: 456: GAT polypeptide (protein)
chain: B8 chain with Y31F, F45Y, E83D, T89S, L97I, R120K, V129I
modifications: 10_4G5
notes: GAT polypeptide
B22: SEQ ID NO: 453: GAT polypeptide (protein)
chain: B8 chain with A28V, S33T, L97I, R120K, L145I
modifications: 10_4D5
notes: GAT polypeptide
B23: SEQ ID NO: 451: GAT polypeptide (protein)
chain: B8 chain with R18K, S33T, R47G, Q65E, Q96E, L97I, R101K, D104N, R120K
modifications: 0_6H9
notes: GAT polypeptide
B24: SEQ ID NO: 452: GAT polypeptide (protein)
chain: MIEVKPINAEDTYELRHKILRPNQPLEVCMYETDLLRGAFHLGGXYRGKLISIASFHQAEHSELQGQKQYQLRGMATLEGYRDQKAGSSLIKHAEQILRKRGADXLWCNARTSASGYYKKLGFSEQGEIFDTPPVGPHILMYKRLT
modifications: X: residue not identified in the source; ends and bridges not checked
notes: GAT polypeptide
B25: SEQ ID NO: 465: GAT polypeptide (protein)
chain: B24 chain with I2L, K18R, L26I, X45F, R47G, Q96E, X105L, I129V, D131E
modifications: 1_1G12
notes: GAT polypeptide
B26: SEQ ID NO: 470: GAT polypeptide (protein)
chain: B24 chain with D11E, V28A, A39S, X45F, Q65E, Y81F, Q96E, X105L, D131E
modifications: 1_2B6
notes: GAT polypeptide
B27: SEQ ID NO: 461: GAT polypeptide (protein)
chain: B24 chain with K18R, X45F, R47G, S62P, E63D, K92R, I97L, X105L, D131E, L145I
modifications: 11_3C12
notes: GAT polypeptide

experiment: Standard protocol for determination of kcat and KM (continuous spectrophotometric assay, Acetyl CoA hydrolysis at 235 nm); assay type: biochemical; details: purified protein; about 23° C.; 20 mM HEPES pH 6.8, 10% ethylene glycol, 0.2 mM acetyl CoA
Method in brief: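 KM from initial rates over 0.125–10 mM glyphosate, fitted by Lineweaver-Burke transformation of Michaelis-Menten; kcat/KM computed as kcat divided by KM. Continuous spectrophotometric read of acetyl-CoA hydrolysis at 235 nm.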

Point of comparison: B8, Kcat 224 min⁻¹. Against it:
- B1 — higher, 244 min⁻¹
- B2 — lower, 164 min⁻¹
- B3 — higher, 229 min⁻¹
- B4 — lower, 86.2 min⁻¹
- B5 — lower, 108.4 min⁻¹
- B6 — lower, 101.3 min⁻¹
- B7 — higher, 291 min⁻¹
- B9 — lower, 55.3 min⁻¹
- B10 — lower, 94 min⁻¹
- B11 — lower, 175 min⁻¹
- B12 — lower, 214.02 min⁻¹
- B13 — higher, 252 min⁻¹
- B14 — higher, 231.04 min⁻¹
- B15 — lower, 219.97 min⁻¹
- B16 — lower, 55.39 min⁻¹
- B17 — lower, 212 min⁻¹
- B18 — lower, 194.61 min⁻¹
- B19 — lower, 184.44 min⁻¹
- B20 — lower, 55.66 min⁻¹
- B21 — lower, 176.65 min⁻¹
- B22 — lower, 82.72 min⁻¹
- B23 — higher, 228 min⁻¹
- B24 — lower, 69.6 min⁻¹
- B25 — lower, 58.48 min⁻¹
- B26 — lower, 138 min⁻¹
- B27 — lower, 49.07 min⁻¹

same assay, conditions: purified protein; about 23° C.; pH 6.8; 0.2 mM acetyl CoA; glyphosate 0.125 to 10 mM

Point of comparison: B4, Km 1600 µM. Against it:
- B1 — within 1.5-fold, 1100 µM
- B2 — 3.6-fold lower, 440 µM
- B3 — within 1.5-fold, 1300 µM
- B5 — within 1.5-fold, 1100 µM
- B6 — 1.8-fold lower, 900 µM
- B7 — within 1.5-fold, 1800 µM
- B8 — 2.4-fold lower, 670 µM
- B10 — within 1.5-fold, 1500 µM
- B11 — 4.7-fold lower, 340 µM
- B12 — 7.3-fold lower, 220 µM
- B13 — 2-fold lower, 800 µM
- B14 — 8-fold lower, 200 µM
- B15 — 2.5-fold lower, 630 µM
- B17 — 3.6-fold lower, 440 µM
- B18 — 6.2-fold lower, 260 µM
- B19 — 7.6-fold lower, 210 µM
- B21 — 2.8-fold lower, 580 µM
- B23 — 3.4-fold lower, 470 µM
- B26 — 2.8-fold lower, 580 µM
